The data set deals with the molecule itself. The data set is described as follows: SEC-MALS. For orientation: SEC sorts molecules by how far they enter the pores of the column.

B1: His6-tagged Hvo_0019 (enzyme, Haloferax volcanii)
chain: MSVRDEFDAWAADGRDKGMEDRHWHTAKHALARMPVEEGDTVVDLGTGSGYALRALRDTKGIGRGFGLDGSPEMVQNARAYTDTDDLSFLVGDFDDLPFDDDSVDHVWSMEAFYYAADPHHTLEEIARILKPGGTFYCAVNYYEENVHSHEWQEHISIDMTRWSHAEYREAFRDAGLHVAEQDSIADLDIDIPAATEFPTDDWETREAMVERYRTFGTLLTVGVAP
Consider B1, for which the binding result is recorded as “binds”.

The record behind these values is article PMC6144793 (Nucleic Acids Research, 2018).
